The values below come from patent US20180074079A1.

The target in assay [1] is rHDL bearing apoA-IW19:A136 (human) (UniProt P02647). As to the kind of experiment: FRET (Trp19 to AEDANS136) exchange assay, rHDL to lipid-free protein 1:5 molar, 37 C.
Assay [2] has the same target. In words: FRET exchange assay, rHDL to lipid-free protein 1:5 molar, 37 C.
Assay [3] has the same target. As to the kind of experiment: FRET exchange assay, biphasic fit.
Assay [4] addresses HDL in human plasma (human). As to the kind of experiment: EPR, frozen and thawed plasma.
The target of assay [5] is HDL in human plasma (human). As to the kind of experiment: EPR, increasing probe concentration in patient plasma.
In assay [6] the target is HDL in human plasma (human). As to the kind of experiment: EPR, frozen and thawed plasma with higher TG concentration.
In assay [7] the target is HDL in human plasma (human). In words: EPR, center peak amplitude over time, 0.3 mg/ml probe in plasma of patient D1.
Assay [8] addresses HDL in human plasma (human). In words: EPR, center peak amplitude over time, 0.3 mg/ml probe in plasma of patient M1.
For assay [9], the target named is HDL in human plasma (human). In words: EPR, center peak amplitude over time, 0.3 mg/ml probe in plasma of patient N1.
Assay [10] has as its target HDL in human plasma (human). In words: EPR, frozen and thawed plasma with higher TG concentration, third freeze-thaw.
Assay [11] concerns the target 9.6 nm POPC rHDL generated with Alexa 350 labeled apoA-I (human) (UniProt P02647). As to the kind of experiment: displacement/exchange, rHDL apoA-I to lipid-free apoA-I 1:5 molar, 37 C, NDGGE fluorescence.

Chain of rHDL bearing apoA-IW19:A136 (human) (P02647 other isoform, or with tags, fused parts or gaps): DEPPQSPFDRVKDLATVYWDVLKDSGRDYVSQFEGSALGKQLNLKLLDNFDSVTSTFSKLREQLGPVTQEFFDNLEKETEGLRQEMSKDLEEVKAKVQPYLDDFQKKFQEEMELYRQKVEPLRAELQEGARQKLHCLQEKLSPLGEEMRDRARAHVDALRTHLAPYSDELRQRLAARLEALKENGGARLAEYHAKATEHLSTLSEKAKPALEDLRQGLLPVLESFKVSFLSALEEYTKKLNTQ
Chain of 9.6 nm POPC rHDL generated with Alexa 350 labeled apoA-I (human) (P02647 25-267): as the sequence (P02647 other isoform, or with tags, fused parts or gaps) above, with F8W, W19V, F50W, F72W, F108W, C136E counted along it

“Trp Null apoA-I (four endogenous tryptophans substituted for phenylalanine) (from UniProt P02647 25-267)” displayed an exponential relaxation time (time to 50% maximal exchange, τ) in assay [1] of 0.94 h.

“Trp Null apoA-I oxidized by peroxynitrite (from UniProt P02647 25-267)” had an exponential relaxation time of exchange (t) in [2] of 0.67 h.

In assay [3], “Trp Null apoA-I oxidized by the MPO-H2O2-nitrite system (from UniProt P02647 25-267)” showed an exchange impaired population of 57.3% and an unaffected population of 42.7%. In [2], this substance showed an exponential relaxation time of exchange (t1) of 0.92 h and an exponential relaxation time of exchange (t2) of 18.8 h.

In [4], “apoA-ISL217 (apoA-I bearing a G217C mutation, cysteine derivatized with a thiosulfonate linked nitroxide spin label) (from UniProt P02647 25-267)” came in with a reduction of rate and degree of binding after a freeze-thaw cycle of 10%; a reduction of rate and degree of binding after the third freeze-thaw of 20%. The substance further came in with a saturating concentration in assay [5] of 1.9 mg/mL. The substance also yielded a decrease in EPR observable binding after freeze-thaw, plasma with higher TG in assay [6] of 15%. The same substance gave a time to maximal binding (patient D1) in assay [7] of 10 min. Also, the time to maximal binding (patient M1) in assay [8] came out at 8 min. In assay [9], this substance returned a time to binding (patient N1) below 5 min. In addition, in assay [10], the decrease in EPR observable binding after freeze-thaw, plasma with higher TG came out at 25%.

Take “unlabeled lipid-free apoA-I (from UniProt P02647 25-267)”: the release of Alexa350 labeled apoA-I from rHDL into the lipid-free pool in assay [11] is above 90%.
